From US6713042B2, “Ascorbic acid analogs for metalloradiopharmaceuticals” (Bristol-Myers Squibb Pharma Company, priority 2001, dated 2004)

Key:
[1] = Solution stability of the 111In-labeled conjugate in ascorbic acid buffer, RCP by HPLC (Method 3); assay type: physicochemical; conditions: for RCP (radiochemical purity): 0.1 M ascorbic acid buffer pH 6.0
Method: The integrity of a radiopharmaceutical is measured by the radiochemical purity (RCP) of the radiolabeled compound using ITLC or more preferably HPLC. The advantage of using HPLC is that radio-impurities caused by radiolytic degradation can be separated from the radiopharmaceutical under optimized chromatographic conditions. […] The radiopharmaceutical compositions of this invention are effective in maintaining the long-term stability of samples that have been frozen, thawed, and re-tested up to 5 days post-labeling. The initial RCP of a radiopharmaceutical is largely dependent on radiolabeling conditions such as pH, heating temperature and time. Once a radiopharmaceutical is prepared in high yield, the ability of an antioxidant to stabilize a radiopharmaceutical composition is measured by the RCP change over a certain period of time. The integrity of a radiopharmaceutical is measured by the radiochemical purity (RCP) of the radiolabeled compound using ITLC or more preferably HPLC. The advantage of using HPLC is that radio-impurities caused by radiolytic degradation can be separated from the radiopharmaceutical under optimized chromatographic conditions. […] The radiopharmaceutical compositions of this invention are effective in maintaining the long-term stability of samples that have been frozen, thawed, and re-tested periodically for 5 days. The initial RCP of a radiopharmaceutical is largely dependent on radiolabeling conditions such as pH, heating temperature and time. Once a radiopharmaceutical is prepared in high yield, the stability of the radiopharmaceutical composition is measured by the RCP change of the radiopharmaceutical over a certain period of time. HPLC method 3 used a HP-1100 HPLC system with a UV/visible detector (k=220 nm), an IN-US radio-detector, and a Zorbax C18 column (4.6 mm×250 mm, 80 A pore size). […] After cooling to room temperature, a sample of the resulting solution was then analyzed by HPLC (Method 3, injection volume=10 μL). […] Samples were analyzed at t 0 (RCP 98.2%) and 24 h (RCP=97.6%). […]

[2] = Solution stability of the 90Y-labeled conjugate in ascorbic acid buffer, RCP by HPLC (Method 1); assay type: physicochemical; conditions: for RCP (radiochemical purity): 0.1 M ascorbic acid buffer pH 5.0
Method: (§1) The integrity of a radiopharmaceutical is measured by the radiochemical purity (RCP) of the radiolabeled compound using ITLC or more preferably HPLC. The advantage of using HPLC is that radio-impurities caused by radiolytic degradation can be separated from the radiopharmaceutical under optimized chromatographic conditions. […] The radiopharmaceutical compositions of this invention are effective in maintaining the long-term stability of samples that have been frozen, thawed, and re-tested up to 5 days post-labeling.
(§2) The initial RCP of a radiopharmaceutical is largely dependent on radiolabeling conditions such as pH, heating temperature and time. Once a radiopharmaceutical is prepared in high yield, the ability of an antioxidant to stabilize a radiopharmaceutical composition is measured by the RCP change over a certain period of time.
as §1, with “periodically for” for “up to”, “days.” for “days post-labeling.”
as §2, with “stability” for “ability”, “the” for “an antioxidant to stabilize a”, “change of the radiopharmaceutical” for “change”
Analytical Methods. HPLC method 1 used a HP-1100 HPLC system with a UV/visible detector (Δ=220 nm), an IN-US radio-detector, and a Zorbax C18 column (4.6 mm×250 mm, 80 A pore size). The flow rate was 1 mL/min with the mobile phase starting with 92% solvent A (0.025 M ammonium acetate buffer, pH 6.8) and 8% solvent B (acetonitrile) to 90% solvent A and […] at 18 min, followed by an isocratic wash using 40% of solvent A and 60% solvent B from 19 to 25 min.
(2S)-2-[({2,6-Dimethyl-4-[3-(N-{2-[3-sulfo-2-(3-sulfo-2-{2-[1,4,7,10-tetraaza-4,7,10-tris(carboxymethyl) cyclododecyl]acetylamino}propyl)propyl]ethyl}carbamoyl)-propoxy]phenyl}sulfonyl)amino]-3-({7-[(imidazol-2-ylamino)methyl]-1-methyl-4-oxo(3-hydroquinolyl)}-carbonylamino)propanoic acid trifluoroacetate was prepared as disclosed in U.S. patent application Ser. No. 09/456,300 and was subsequently dissolved in 0.1 M AA buffer (pH 5.0) to give a concentration of 100 μg/mL. The resulting solution was immediately degassed under vacuum for another 1-2 min. To a clean sealed 5 mL vial was added 5.0 mL of 0.1 M ascorbic acid buffer (pH 5.0) containing 500 μg of (2S)-2-[({2,6-Dimethyl-4-[3-(N-{2-[3-sulfo-2-(3-sulfo-2-{2-[1,4,7,10-tetraaza-4,7,10-tris(carboxymethyl) cyclododecyl]acetylamino}propyl) propyl]ethyl}carbamoyl)propoxy]phenyl}sulfonyl)amino]-3-({7-[(imidazol-2-ylamino)methyl]-1-methyl-4-oxo(3-hydroquinolyl)}carbonylamino)propanoic acid trifluoroacetate. The solution was degassed again under vacuum. Upon addition of ˜75 μL of ^90YCl3 solution (101.5 mCi) in 0.05 N HCl, the reaction mixture was heated at 95° C. for 30 min. After cooling to room temperature, a sample of the resulting solution was diluted 50-fold with saline containing sodium gentisate (10 mg/mL), and was then analyzed by HPLC (Method 1, injection volume 5 μL). The resulting mixture was then kept in a dry-ice box (−78° C.) for 5 days. Samples were analyzed at t=0 (RCP=98.5%), 24 h (RCP=98.4%), 68 h (RCP=98.0%), and 120 h (RCP=98.8%). The retention time was 14.8 min.

[3] = 5 mL AA solution containing 100 mg AA, pH=5.0

Substance	remains stable in solution (time) ([1]; 0.1 M ascorbic acid buffer pH 6.0, room temperature)	RCP (radiochemical purity) ([1]; 24 h, kept at room temperature) [%]	RCP (radiochemical purity) ([1]; t 0, 2.8 mCi 111In) [%]	RCP while stable over at least 5 days [2, 3] [%]	remains stable (time) [2, 3]	RCP (radiochemical purity) ([2]; 24 h, kept in dry-ice box (-78° C.)) [%]	RCP (radiochemical purity) ([2]; 68 h, kept in dry-ice box (-78° C.)) [%]	RCP (radiochemical purity) ([2]; 120 h, kept in dry-ice box (-78° C.)) [%]	RCP (radiochemical purity) ([2]; t=0, 100 mCi 90Y) [%]
^111In-(2S)-2-[({2,6-Dimethyl-4-[3-(N-{2-[3-sulfo-2-(3-sulfo-2-{2-[1,4,7,10-tetraaza-4,7,10-tris(carboxymethyl) cyclododecyl]acetylamino}--propyl)propyl]ethyl}carbamoyl)-propoxy]phenyl}sulfonyl)amino]-3-({7-[(imidazol-2-ylamino)methyl]-1-methyl-4-oxo(3-hydroquinolyl)}-carbonylamino)propanoic acid trifluoroacetate [Example 3]	at least 24 hours	97.6	98.2	–	–	–	–	–	–
^90Y-(2S)-2-[({2,6-Dimethyl-4-[3-(N-{2-[3-sulfo-2-(3-sulfo-^2-{^2-[1,4,7,10-tetraaza-4,7,10-tris(carboxymethyl) cyclododecyl]acetylamino}--propyl)propyl]ethyl}carbamoyl)-propoxy]phenyl}sulfonyl)amino]-^3-({^7-[(imidazol-2-ylamino)methyl]-1-methyl-4-oxo(3-hydroquinolyl)}-carbonylamino)propanoic acid trifluoroacetate [Example 2]	–	–	–	> 96	at least 5 days	98.4	98.0	98.8	98.5
